Reference: patent US20210052718A1

How the values were obtained:
[1] = biological target: Live RSV (A2 strain) (respiratory syncytial virus A2 strain) (UniProt P03420); assay: ELISA on coated virus; grade +++ = OD 1-1.5
[2] = biological target: FI-RSV (post F): formalin-inactivated whole RSV (respiratory syncytial virus) (UniProt P03420); assay: ELISA on coated virus preparation; grade +++ = OD 1-1.5
[3] = biological target: Split RSV37° C. (standard preparation of inactivated split RSV vaccine) (respiratory syncytial virus) (UniProt P03420); assay: ELISA on coated virus preparation; grade +++++ = OD 2-2.5
Split RSV37° C. (standard preparation of inactivated split RSV vaccine) (respiratory syncytial virus), sequence (P03420 26-574): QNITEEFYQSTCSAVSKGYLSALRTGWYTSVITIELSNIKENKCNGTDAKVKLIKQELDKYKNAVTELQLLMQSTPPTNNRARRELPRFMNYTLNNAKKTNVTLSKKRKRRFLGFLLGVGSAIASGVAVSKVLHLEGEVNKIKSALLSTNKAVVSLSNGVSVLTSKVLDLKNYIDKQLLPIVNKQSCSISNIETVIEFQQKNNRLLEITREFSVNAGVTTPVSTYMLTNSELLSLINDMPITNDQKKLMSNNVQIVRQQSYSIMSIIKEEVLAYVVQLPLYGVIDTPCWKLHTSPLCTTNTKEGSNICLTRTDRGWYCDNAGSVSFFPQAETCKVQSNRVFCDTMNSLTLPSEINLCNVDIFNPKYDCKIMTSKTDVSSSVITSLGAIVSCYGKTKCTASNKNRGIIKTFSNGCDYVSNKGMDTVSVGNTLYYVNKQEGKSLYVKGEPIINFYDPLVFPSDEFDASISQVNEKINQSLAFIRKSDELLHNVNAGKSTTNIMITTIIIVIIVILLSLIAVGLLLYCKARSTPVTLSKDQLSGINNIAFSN

[4] = biological target: Split RSV4° C. (inactivated at low temperature (4° C.) and split) (respiratory syncytial virus) (UniProt P03420); assay: ELISA on coated virus preparation; grade ++++++ = OD >2.5
Split RSV4° C. (inactivated at low temperature (4° C.) and split) (respiratory syncytial virus), sequence (P03420 26-574): as above

UniProt P03420, sequence (P03420 26-574): as above
Live RSV (A2 strain) (respiratory syncytial virus A2 strain), sequence (P03420 26-574): as above

palivizumab (antibody) was tested, and the ELISA OD [1] was 1 to 1.5 od, the ELISA OD [2] was 1 to 1.5 od and the ELISA OD [3] was 2 to 2.5 od. It also gave an ELISA OD [4] of over 2.5 od.
